Where a SMILES comes first, the peptide text is derived from it. Where no end group is shown, it is not given here. [ ]: non-standard residue; d: D form. Lys(Me2) = CN(C)CCCC[C@H](N)C(=O)O; d = 2'-deoxy (DNA); r = 2'-OH (RNA)
Legend:
[1] = target: T1, GST-53BP1 fusion protein containing 53BP1 residues 1480-1626 (Homo sapiens, UniProt Q12888); assay: Competition of binding of GST-53BP1 to histone H3 by histone H3 peptides (pull-down, immunoblot); details: 5 or 25 μg peptide; histones prepared from 293T cells; bound histone H3 detected by immunoblotting
T1 construct: a GST-53BP1 fusion protein containing 53BP1 residues 1480-1626 to histones prepared from 293T cells
Text: FIG. 3 Binding of the tandem tudor domain of 53BP1 to histone H3 methylated on Lys79. a, GST-53BP1 fusion proteins containing residues 1157-1634 or 1480-1626 of human 53BP1 or plain GST protein were examined for binding to calf thymus histones (ct) or recombinant histones H3 and H4 (r). The proteins were resolved by SDS-PAGE and stained with Coomassie Brilliant Blue. The labels for H3, H2A, H2B and H4 refer to the input histones (Inp. Hist.). b, Identification of 53BP1-bound histones as full-length and N-terminally-cleaved histone H3. Input and GST-53BP1-bound histones were stained with Coomassie Brilliant Blue (C.B.) or immunoblotted (IB) with an antibody that recognizes the C-terminus (C-ter) of histone H3. c, Enrichment for methylation of Lys79 in histone H3 bound to GST-53BP1 as compared to input histone H3. Bound full-length histone H3 (aa 1-135), bound cleaved histone H3 (aa 28-135) and full-length histone H3 from the input fraction were analyzed by tandem mass spectrometry (MS/MS). For each sample, the identified peptides that include Lys79 are shown. K, K# and K## represent non-, mono- and di-methylated lysine, respectively. TIC, total ion current (an indicator of peptide abundance); dM, absolute difference of the experimental and theoretical masses; xCorr, cross correlation value of the experimental MS/MS spectrum versus the theoretical; Ions, number of matched ions in the experimental MS/MS spectrum versus the total number of theoretically possible ions. d, Competition of binding of 53BP1 to histone H3 by methylated histone H3 peptides. Binding of a GST-53BP1 fusion protein containing 53BP1 residues 1480-1626 to histones prepared from 293T cells was performed in the presence of no competitor peptide (−) or 5 or 25 μg histone H3 peptides. Bound histone H3 was detected by immunoblotting. Peptides spanning residues 74-83 of histone H3 had either non- (nm), mono- (mm) or di-methylated (dm) Lys79 (K79); peptides spanning residues 23-34 and 23-32 of histone H3 had dimethylated Lys27 (K27) and Arg26 (R26), respectively. e, Binding of a GST fusion protein containing S. cerevisiae Rad9 residues 750-917 to histone H3. Binding was examined as in a. f, Amino acid substitutions that disrupt recruitment of 53BP1 to sites of DNA DSBs also disrupt binding to histone H3. Binding was examined as in a. g, Crosslinking of ectopically-expressed His-tagged GFP-53BP1 to endogenous histone H3 in irradiated U2OS cells. Non-transfected U2OS cells (−) or cells transfected with His-tagged GFP-53BP1 fusion proteins having wild-type (wt) or mutant (Asp1521Arg, D1521R) 53BP1 were crosslinked with formaldehyde (fr) or were mock-crosslinked (m). Triton-X100 insoluble material (TrIM) from these cells was incubated with nickel-coated beads. Histone H3 in the TrIM and nickel bead-bound (NiBB) fractions was detected by immunoblotting after the crosslinks were reversed.
Glutathione S-transferase (GST) proteins (5 μg) fused to residues 1157-1634 or 1480-1626 of human 53BP1 or 750-917 of S. cerevisiae Rad9 were bound to glutathione beads (Pharmacia). The beads were then incubated for 1 h at 4° C. with histones in buffer containing 25 mM BTP [pH 6.8], 1 M KCl, and 0.5% Triton X-100. After 6 washes the bound material was resolved on SDS-polyacrylamide gels and either stained with Coomassie Brilliant Blue or immunoblotted with an antibody that recognizes the C-terminus of histone H3 (AbCam). […]

[2] = target: 53BP1 tandem tudor domain (Homo sapiens, UniProt Q12888); assay: Isothermal titration calorimetry; format: binding; details: data not shown; read-out: dissociation constant
human Dot1L = target: T2, human Dot1L (Homo sapiens, UniProt Q8TEK3); assay: Suppression of histone H3 methylation on Lys79 by siRNA (immunoblot); format: cell-based; details: U2OS cells, dot1L siRNA transfection (up to 3 rounds)
T2 construct: U2OS cells were transfected with control siRNA (luciferase; Dharmacon) or siRNA directed against human dot1L; endogenous in cells; host or cells: U2OS osteosarcoma cells

U2OS cells = assay: 53BP1 IR-induced foci in irradiated U2OS cells after siRNA (immunofluorescence); format: cell-based, human; details: 9 Gy IR, 15 min later
Description: FIG. 4 Histone H3 methylated on Lys79 and changes in higher order chromatin structure recruit 53BP1 to sites of DNA DSBs and chromatin. a, Suppression of histone H3 methylation on Lys79 inhibits recruitment of 53BP1 to sites of DNA DSBs. The percentage of irradiated (9 Gy) U2OS cells without (w/o) 53BP1 foci was determined from 4 independent experiments of control (ctl) siRNA-treated cells or cells transfected once (1) or 3 consecutive times (3) with dot1L-specific siRNA. Bars indicate standard errors. […] Histones prepared from non-irradiated or irradiated (9 Gy) 293T cells were resolved by SDS-PAGE and stained with Coomassie Brilliant Blue (C.B.; top panel) or immunoblotted with antibodies that recognize the C-terminus (C-ter) of histone H3, histone H3 dimethylated on Lys79 (K79dm), histone H2AX and phosphorylated histone H2AX (γ-H2AX; middle panel). […] Bound histone H3 was detected by immunoblotting (IB; lower panel). c, Exposure of cells to hypotonic media slows the nuclear diffusion of 53BP1. […] To show differences in GFP-53BP1 fluorescence before and after bleaching, the post-bleach image was pseudocolored magenta and merged with the pre-bleach image (Diff. image). […]
3 days after the last siRNA transfection, the cells were exposed to 9 Gy IR and 53BP1 intracellular localization was monitored by immunofluorescence 15 min later^5.

T1 sequence (Q12888 1480-1626): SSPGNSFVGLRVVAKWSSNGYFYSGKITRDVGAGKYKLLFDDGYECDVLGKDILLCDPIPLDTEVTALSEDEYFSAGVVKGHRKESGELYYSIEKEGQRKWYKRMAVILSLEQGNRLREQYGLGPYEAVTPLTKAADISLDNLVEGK
53BP1 tandem tudor domain, sequence (Q12888 1484-1603 limits assumed): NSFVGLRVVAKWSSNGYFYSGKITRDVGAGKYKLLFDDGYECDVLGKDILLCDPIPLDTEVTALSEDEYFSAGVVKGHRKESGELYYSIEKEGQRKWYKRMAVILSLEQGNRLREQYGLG
T2 sequence (Q8TEK3 whole entry): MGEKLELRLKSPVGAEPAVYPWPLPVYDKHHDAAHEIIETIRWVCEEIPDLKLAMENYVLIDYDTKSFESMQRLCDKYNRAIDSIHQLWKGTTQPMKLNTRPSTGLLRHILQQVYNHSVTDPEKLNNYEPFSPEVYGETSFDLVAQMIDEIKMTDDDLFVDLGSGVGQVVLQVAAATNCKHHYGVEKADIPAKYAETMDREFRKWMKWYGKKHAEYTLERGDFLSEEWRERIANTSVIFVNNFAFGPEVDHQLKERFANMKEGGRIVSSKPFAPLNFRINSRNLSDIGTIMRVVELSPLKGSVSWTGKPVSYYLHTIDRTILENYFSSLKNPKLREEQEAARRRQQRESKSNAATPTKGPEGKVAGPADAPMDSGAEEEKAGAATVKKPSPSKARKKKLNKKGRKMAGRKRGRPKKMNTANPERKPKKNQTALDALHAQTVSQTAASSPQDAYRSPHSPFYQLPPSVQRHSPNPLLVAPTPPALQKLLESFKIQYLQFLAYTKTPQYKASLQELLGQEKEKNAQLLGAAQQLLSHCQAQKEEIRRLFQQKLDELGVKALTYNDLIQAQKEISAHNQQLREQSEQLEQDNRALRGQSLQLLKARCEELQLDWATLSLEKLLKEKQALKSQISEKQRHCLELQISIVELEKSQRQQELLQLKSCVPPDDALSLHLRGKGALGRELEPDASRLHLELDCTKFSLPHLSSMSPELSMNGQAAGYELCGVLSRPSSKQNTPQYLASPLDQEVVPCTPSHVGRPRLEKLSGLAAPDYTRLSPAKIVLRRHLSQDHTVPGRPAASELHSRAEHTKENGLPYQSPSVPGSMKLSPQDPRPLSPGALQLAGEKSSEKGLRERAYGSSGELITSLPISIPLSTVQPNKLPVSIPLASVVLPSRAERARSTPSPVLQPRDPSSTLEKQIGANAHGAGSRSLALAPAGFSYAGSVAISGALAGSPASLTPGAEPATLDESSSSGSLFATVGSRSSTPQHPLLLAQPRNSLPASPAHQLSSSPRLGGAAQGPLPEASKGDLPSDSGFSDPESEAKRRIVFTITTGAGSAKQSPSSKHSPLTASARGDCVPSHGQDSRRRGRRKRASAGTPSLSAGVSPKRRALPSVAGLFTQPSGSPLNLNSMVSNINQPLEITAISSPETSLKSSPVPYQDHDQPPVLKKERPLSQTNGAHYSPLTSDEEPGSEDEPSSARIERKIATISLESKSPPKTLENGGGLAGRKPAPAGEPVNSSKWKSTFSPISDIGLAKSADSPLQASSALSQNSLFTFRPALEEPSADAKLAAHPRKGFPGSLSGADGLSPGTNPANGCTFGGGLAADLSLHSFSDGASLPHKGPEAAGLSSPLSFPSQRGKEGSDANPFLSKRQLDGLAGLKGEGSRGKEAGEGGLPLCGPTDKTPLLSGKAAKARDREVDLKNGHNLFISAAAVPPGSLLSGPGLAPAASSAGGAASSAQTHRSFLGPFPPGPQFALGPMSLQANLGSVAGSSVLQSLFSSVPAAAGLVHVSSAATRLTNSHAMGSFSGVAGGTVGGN

| Compound | competition for binding of histone H3 to 53BP1 [1] | further results |
| --- | --- | --- |
| CC[C@H](C)[C@H](N)C(=O)N[C@@H](C)C(=O)N[C@@H](CCC(N)=O)C(=O)N[C@@H](CC(=O)O)C(=O)N[C@@H](Cc1ccccc1)C(=O)N[C@@H](CCCCN(C)C)C(=O)N[C@H](C(=O)N[C@@H](CC(=O)O)C(=O)N[C@@H](CC(C)C)C(=O)N[C@@H](CCCNC(=N)N)C(=O)O)[C@@H](C)O (H-IAQDF[Lys(Me2)]TDLR-OH; N-terminus and C-terminus assumed) | competed for binding of histone H3 to 53BP1 | Kd [2]: < 1000 nM |
| peptide with dimethylated Lys27: peptide spanning residues 23-34 of histone H3 with dimethylated Lys27 (KAARKSAPATGG; Lys27 dimethylated; UniProt P68431 24-35, looked up, fragment) | competed with lower efficiency |  |
| GCUCGCUAUGGAGAAUUACdTdT (guide GCUCGCUAUGGAGAAUUACTT; siRNA; sugars from the 5' end r19 d2, backbone not given here) [siRNA specific for human Dot1L, siRNA directed against human dot1L] |  | methylation of histone H3 on Lys79 (human Dot1L): suppressed; recruitment of 53BP1 to sites of DNA DSBs (U2OS cells): suppressed |

The next lines start with results.

| competition for binding of histone H3 to 53BP1 [1] | Compound | further results |
| --- | --- | --- |
| competed with lower efficiency | monomethylated Lys79 peptide: peptide spanning residues 74-83 of histone H3 with mono-methylated Lys79 (IAQDFK(Me)TDLR) |  |
| competed with lower efficiency | peptide with dimethylated Arg26: peptide spanning residues 23-32 of histone H3 with dimethylated Arg26 (KAARKSAPAT; dimethylated Arg26; UniProt P68431 24-33, looked up, fragment) |  |
| did not compete | corresponding non-methylated peptide: peptide spanning residues 74-83 of histone H3 with non-methylated Lys79 (IAQDFKTDLR) |  |
